Experimental findings from paper PMC10853764 are described below.

Data set [1] addresses Caulobacter crescentus full length DriD with His-tag (Caulobacter crescentus). Briefly: SEC.
Data set [2] addresses DriD(L10E) with His-tag (Caulobacter crescentus). Kind of data set: SEC. A general note: Size exclusion chromatography separates by hydrodynamic size, large species first.
Data set [3] has as its target Caulobacter crescentus full length DriD, tag-free (Caulobacter crescentus). Kind of data set: mass photometry.
For data set [4] the target is unchanged. Briefly: cross-linking.
The target of data set [5] is DriD(V73P-F74P) with His-tag (Caulobacter crescentus). Briefly: SEC.
For data set [6], the target named is T1, DriD WT (Caulobacter crescentus, UniProt Q9A999 5-331).
T1 sequence: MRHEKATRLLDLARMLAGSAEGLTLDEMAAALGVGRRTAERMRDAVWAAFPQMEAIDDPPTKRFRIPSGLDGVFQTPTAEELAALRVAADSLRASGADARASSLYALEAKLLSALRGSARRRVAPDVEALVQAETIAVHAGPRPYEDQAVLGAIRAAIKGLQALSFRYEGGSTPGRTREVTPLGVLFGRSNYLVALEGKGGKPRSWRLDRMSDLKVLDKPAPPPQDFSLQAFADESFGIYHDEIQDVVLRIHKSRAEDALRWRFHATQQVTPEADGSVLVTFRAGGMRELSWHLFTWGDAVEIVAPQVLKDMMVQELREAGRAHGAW
Briefly: fluorescence polarization. (Polarisation of emitted light reports the rotation of a fluorescent probe.)

The next data set concerns the target T2, DriD(V73P-F74P) (Caulobacter crescentus, UniProt Q9A999 5-331, V77P;F78P).
T2 sequence: T1 sequence with V73P, F74P
Briefly: fluorescence polarization.

The target of a further data set is T3, DriD(T61A-K62A) (Caulobacter crescentus, UniProt Q9A999 5-331, T65A;K66A).
T3 sequence: T1 sequence with T61A, K62A
Briefly: fluorescence polarization.

The target in the next data set is T4, DriD(L10E) (Caulobacter crescentus, UniProt Q9A999 5-331, L14E).
T4 sequence: T1 sequence with L10E
Kind of data set: fluorescence polarization.

The target in another data set is T5, DriD(E40A) (Caulobacter crescentus, UniProt Q9A999 5-331, E44A).
T5 sequence: T1 sequence with E40A
Kind of data set: fluorescence polarization.

Another data set deals with T6, DriD(E40K) (Caulobacter crescentus, UniProt Q9A999 5-331, E44K).
T6 sequence: T1 sequence with E40K
Briefly: fluorescence polarization.

Data set [7] concerns the target T1, DriD WT. Briefly: X-ray crystallography 2.74 A.
Data set [8] concerns the target T1, DriD WT. Briefly: fluorescence polarization. This is another data set of the same source.

Residue numbers refer to the chain shown, from its start.

By stoichiometry N is commonly meant a count of units in the complex or per binding partner. In [1], “Caulobacter crescentus full length DriD with His-tag (natural protein)” showed a stoichiometry N of 2.
In [2], “DriD(L10E) with His-tag (natural protein)” yielded a stoichiometry N of 2.
As to “Caulobacter crescentus full length DriD, tag-free (natural protein)”, the stoichiometry N in [3] and in data set [4] was 2 throughout.
In data set [5], “DriD(V73P-F74P) with His-tag (natural protein)” returned a stoichiometry N of 2.

B1: G2/C14 to A/T (dsDNA)
DNA 1: ATACAATAGTTACTATTGTAT
DNA 2: ATACAATAGTAACTATTGTAT
A word on the Kd: it is the concentration at which binding is half-saturated. The low end stands for higher affinity, the high end for lower affinity. The molecule B1 showed a Kd with DriD WT [6] of 0.512 ± 0.227 µM.

B2: driD promoter 21 bp site (FP) (dsDNA)
DNA 1: ATACGACAGTTACTGTCGTAT
DNA 2: ATACGACAGTAACTGTCGTAT
As to B2, the Kd is 0.133 ± 0.0104 µM with DriD(V73P-F74P), 1.2 ± 0.2 µM with DriD(T61A-K62A), 0.0016 ± 4e-05 µM with DriD WT [6] and 0.12 ± 0.0236 µM with DriD(L10E). The binding signal with DriD(E40A) is 7 fold reduction vs WT protein; with DriD(E40K), 83 fold reduction vs WT protein.
As for TGTCTAT (ssDNA) [7mer ssDNA effector], the binding result with DriD WT [7] is recorded as “binds”.

B3: GC-rich center mutant (dsDNA)
DNA 1: ATACGACGGCCGCCGTCGTAT
DNA 2: ATACGACGGCGGCCGTCGTAT
As to B3, in the data set with DriD WT [8], the binding signal worked out at 20 fold reduction vs WT site.

B4: position 3/13 mutant (T3/A13 to C/G in text) (dsDNA)
DNA 1: ATACGGCAGTTACTGCCGTAT
DNA 2: ATACGGCAGTAACTGCCGTAT
With B4, the Kd in the data set with DriD WT [6] came to 0.0071 ± 0.0009 µM.

B5: C4/G12 to T/A (dsDNA)
DNA 1: ATACGATAGTTACTATCGTAT
DNA 2: ATACGATAGTAACTATCGTAT
In the data set with DriD WT [6], B5 returned a Kd of 0.962 ± 0.182 µM. Against the preceding molecule, the Kd is about 140-fold higher.

B6: C1/G15 to T/A (dsDNA)
DNA 1: ATATGACAGTTACTGTCATAT
DNA 2: ATATGACAGTAACTGTCATAT
For the molecule B6, the Kd with DriD WT [6] is 0.0069 ± 0.0017 µM.
